Five molecules from patent CN115232210A (SHANGDONG NEW TIME PHARM PROD, dated 2022) can be followed below.

B1: 人源化抗体42 (antibody, human IgG1, kappa, V domains shown)
VH: QVQLQESGPGLVKPSQTLSLTCTVSGFSLTSYGVHWVRQHPGKGLEWLGMIWSGGSTDYNSAFISRLTISKDNSKSQVSLKLSSVTAADTAVYYCARVGGDYWGQGTTVTVSS
VL: DIVITQSPLSLPVTLGQPASITCRSSQSLVHSRGNTYLHWFQQRPGQSPRLLIYKVSNRFSGVPDRFSGSGSGTDFTLKISRVEAEDVGVYFCFQTTHVPWTFGQGTRLEIKR
notes: Humanized IgG1/kappa; also called 42D11-8-humanized; 42Humanized
B2: 人源化抗体31 (antibody, human IgG1, kappa, V domains shown)
VH: B1 VH with Q16E, G33S, H40P, S61A
VL: B1 VL with I2V, I4M, V30L
notes: Humanized IgG1/kappa; also called 31A2-2-humanized; 31Humanized
B3: 嵌合抗体C42 (antibody, human IgG1, kappa, V domains shown)
VH: QVQLKQSGPGLVQPSQSLSITCTVSGFSLTSYGVHWVRQSPGKGLEWLGMIWSGGSTDYNSAFISRLSISKDNFKSQVFFKMNSLQADDTAIYYCARVGGDYWGQGTTVTVSS
VL: DIVITQTPLSLPVSLGDPASISCRSSQSLVHSRGNTYLHWFLQKPGQSPKLLIYKVSNRFSGVPDRFSGSGSGTDFTLRISRLEAEDLGVYFCFQTTHVPWTFGGGTKLEIKR
notes: Mouse-human chimeric IgG1/kappa expressed in Expi-293 cells; also called 42Chimeric; 抗体42D11-8的嵌合抗体
B4: 嵌合抗体C31 (antibody, human IgG1, kappa, V domains shown)
VH: B3 VH with Q6E, S31N, G33S, S61A
VL: B3 VL with I2V, V3L, I4M, V30L, L83V
notes: Mouse-human chimeric IgG1/kappa expressed in Expi-293 cells; also called 31Chimeric; 抗体31A2-2的鼠人嵌合抗体
B5: APX005M (antibody, V domains shown)
VH: QVQLVESGGGVVQPGRSLRLSCAASGFSFSSTYVCWVRQAPGKGLEWIACIYTGDGTNYSASWAKGRFTISKDSSKNTVYLQMNSLRAEDTAVYFCARPDITYGFAINFWGPGTLVTVSS
VL: DIQMTQSPSSLSASVGDRVTIKCQASQSISSRLAWYQQKPGKPPKLLIYRASTLASGVPSRFSGSGSGTDFTLTISSLQPEDVATYYCQCTGYGISWPIGGGTKVEIK

Numbering of substitutions follows the chain as printed.

In the first assay the target is T1, 重组人CD40-his蛋白 (human, UniProt P25942 21-193).
T1 construct: extracellular domain; Recombinant protein; also called 人CD40(ECD)-his; huCD40-his; not shown: his tag
T1 sequence (P25942 21-193): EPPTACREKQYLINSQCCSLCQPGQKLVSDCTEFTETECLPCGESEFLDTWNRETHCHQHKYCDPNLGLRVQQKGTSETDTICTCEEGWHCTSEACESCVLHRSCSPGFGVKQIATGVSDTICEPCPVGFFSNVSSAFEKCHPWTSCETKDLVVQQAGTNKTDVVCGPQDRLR
The assay is described as follows: BLI (Fortebio Blitz), antibody on AMC sensor, huCD40-his 6.25-200 nM. In general terms: Biolayer interferometry detects binding as a change in optical thickness at a sensor tip.
For orientation: Kd means a measure of binding affinity in units of concentration. Higher therefore signals a looser complex. The koff is the rate constant with which the complex falls apart. High values mean fast dissociation, low ones slow dissociation. A word on the kon: it is a measure of how fast the partners come together. Low readings indicate slow association, high ones fast association. In turn, B1 gave a dissociation constant (Kd) of 33.2 nM, a koff of 0.00312 s⁻¹ and an on-rate constant (kon) of 94000 M⁻¹ s⁻¹.
Molecule B2 returned a Kd of 16.5 nM, a koff of 0.00223 s⁻¹ and a kon of 135000 M⁻¹ s⁻¹.
Molecule B3 showed a Kd of 13.5 nM, a koff of 0.00524 s⁻¹ and a kon of 389000 M⁻¹ s⁻¹.
The like results for B4 were, in that order, 4.52 nM, 0.000395 s⁻¹ and 87500 M⁻¹ s⁻¹.
In the same order, the values of B5 are 38.2 nM, 0.00533 s⁻¹ and 140000 M⁻¹ s⁻¹.

The target in another assay is T2, HEK293T细胞表达的人CD40 (human, UniProt P25942 21-277).
T2 construct: whole, on cells; also called HEK293T-huCD40
T2 sequence (P25942 21-277): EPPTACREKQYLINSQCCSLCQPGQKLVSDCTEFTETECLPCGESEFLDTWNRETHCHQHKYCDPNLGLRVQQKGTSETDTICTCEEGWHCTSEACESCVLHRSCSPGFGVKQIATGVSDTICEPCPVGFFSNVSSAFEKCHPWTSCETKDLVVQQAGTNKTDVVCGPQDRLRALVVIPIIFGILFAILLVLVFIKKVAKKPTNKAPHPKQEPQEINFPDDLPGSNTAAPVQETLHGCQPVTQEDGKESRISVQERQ
The assay can be described thus: flow cytometry on 293T-huCD40 cells. For orientation: Flow cytometry measures light scatter and fluorescence of single cells or particles in a stream.
By EC50 is commonly meant the concentration giving half of the maximal effect. Take B1: the half-maximal effective concentration (EC50) was determined as 0.251 µg/mL.
Molecule B2 had a half-maximal effective concentration (EC50) of 0.297 µg/mL.
On the same count and under the same terms, next, B5: 0.487 µg/mL.
